Measurements from FireProtDB (doi:10.1021/bi972395d).

Settings: Homo sapiens; pH 7.8; Thermal; DSC; potassium phosphate 2 mM; transition: 2; reversible: Yes; whole UniProt chain shown

B1: Superoxide dismutase [Mn], mitochondrial wild type, P04179 (protein)
chain: MLSRAVCGTSRQLAPVLGYLGSRQKHSLPDLPYDYGALEPHINAQIMQLHHSKHHAAYVNNLNVTEEKYQEALAKGDVTAQIALQPALKFNGGGHINHSIFWTNLSPNGGGEPKGELLEAIKRDFGSFDKFKEKLTAASVGVQGSGWGWLGFNKERGHLQIAACPNQDPLQGTTGLIPLLGIDVWEHAYYLQYKNVRPDYLKAIWNVINWENVTERYMACKK
Tm: 88.9 °C
unfolding enthalpy (calorimetric): 90.6 kcal/mol
